Assay results reported in patent publication US20240261333A1, “NOVEL TARGETS FOR ENHANCING ANTI-TUMOR IMMUNITY” (THE BROAD INSTITUTE, INC., priority 2021, published 2024).

Legend:
OS9 [1] = target: OS9 (UniProt Q13438); experiment: co-IP, anti-FLAG, lysate of C-FLAG B3GNT2 cells, mass spectrometry
SLC25A10 [2] = target: SLC25A10 (UniProt Q9UBX3); experiment: as above
CALM2 [3] = target: CALM2 (UniProt P0DP24); experiment: as above
NCL = NCL (UniProt P19338); experiment: as above
HSPA5 [4] = target: HSPA5 (UniProt P11021); experiment: as above
Sequence of HSPA5 (P11021 19-654 limits assumed): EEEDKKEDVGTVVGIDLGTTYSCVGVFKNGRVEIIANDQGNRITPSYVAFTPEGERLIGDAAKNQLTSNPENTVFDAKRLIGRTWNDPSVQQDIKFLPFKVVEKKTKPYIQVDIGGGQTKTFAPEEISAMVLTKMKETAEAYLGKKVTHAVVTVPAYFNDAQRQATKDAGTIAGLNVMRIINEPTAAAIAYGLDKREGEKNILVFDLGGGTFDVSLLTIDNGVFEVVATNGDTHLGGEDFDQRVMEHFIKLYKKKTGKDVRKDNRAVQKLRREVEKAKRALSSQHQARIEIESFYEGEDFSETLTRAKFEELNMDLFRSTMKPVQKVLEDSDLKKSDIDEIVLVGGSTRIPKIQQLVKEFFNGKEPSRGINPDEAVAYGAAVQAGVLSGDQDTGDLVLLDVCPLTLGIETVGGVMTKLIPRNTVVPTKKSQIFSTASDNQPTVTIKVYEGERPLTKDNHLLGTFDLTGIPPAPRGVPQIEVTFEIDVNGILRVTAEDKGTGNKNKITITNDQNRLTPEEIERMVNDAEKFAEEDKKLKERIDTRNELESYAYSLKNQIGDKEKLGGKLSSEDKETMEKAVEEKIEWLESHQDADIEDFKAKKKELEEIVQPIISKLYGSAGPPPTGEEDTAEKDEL

LOXL4 [5] = target: LOXL4 (UniProt Q96JB6); experiment: as above
Sequence of LOXL4 (Q96JB6 25-756 limits assumed): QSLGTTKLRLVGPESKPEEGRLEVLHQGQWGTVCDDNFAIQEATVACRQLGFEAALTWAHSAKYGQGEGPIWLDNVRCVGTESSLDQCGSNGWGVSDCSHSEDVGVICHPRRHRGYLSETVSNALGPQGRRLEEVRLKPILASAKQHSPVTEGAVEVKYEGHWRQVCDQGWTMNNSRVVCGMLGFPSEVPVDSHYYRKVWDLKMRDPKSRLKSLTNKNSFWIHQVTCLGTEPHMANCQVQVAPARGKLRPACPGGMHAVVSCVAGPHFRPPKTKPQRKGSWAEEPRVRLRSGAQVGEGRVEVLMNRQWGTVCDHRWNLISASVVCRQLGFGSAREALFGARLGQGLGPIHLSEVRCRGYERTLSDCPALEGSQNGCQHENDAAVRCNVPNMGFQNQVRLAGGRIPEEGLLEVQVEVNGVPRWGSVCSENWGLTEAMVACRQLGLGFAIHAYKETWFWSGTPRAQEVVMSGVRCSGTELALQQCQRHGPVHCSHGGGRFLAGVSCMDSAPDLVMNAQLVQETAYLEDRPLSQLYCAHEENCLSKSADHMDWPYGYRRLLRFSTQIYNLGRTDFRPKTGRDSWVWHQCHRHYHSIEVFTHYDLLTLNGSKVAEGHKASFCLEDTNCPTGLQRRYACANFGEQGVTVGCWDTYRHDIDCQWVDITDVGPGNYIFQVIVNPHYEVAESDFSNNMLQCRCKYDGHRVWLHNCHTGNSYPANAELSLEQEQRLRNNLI

LRPPRC [6] = target: LRPPRC (UniProt P42704); experiment: as above
CNP [7] = target: CNP (UniProt P09543); experiment: as above
Sequence of CNP (P09543 21-418 limits assumed): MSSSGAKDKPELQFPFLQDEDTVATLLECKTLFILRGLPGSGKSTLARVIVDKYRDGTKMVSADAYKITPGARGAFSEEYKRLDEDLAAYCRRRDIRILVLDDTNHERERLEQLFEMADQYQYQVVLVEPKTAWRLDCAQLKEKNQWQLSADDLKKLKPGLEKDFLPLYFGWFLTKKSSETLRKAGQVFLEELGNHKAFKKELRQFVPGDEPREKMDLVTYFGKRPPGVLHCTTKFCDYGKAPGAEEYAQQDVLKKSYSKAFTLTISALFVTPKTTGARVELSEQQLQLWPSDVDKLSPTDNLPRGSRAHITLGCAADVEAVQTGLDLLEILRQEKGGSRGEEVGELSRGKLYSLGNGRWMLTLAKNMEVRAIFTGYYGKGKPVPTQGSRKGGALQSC

PPIB = PPIB (UniProt P23284); experiment: as above
PGK1 = PGK1 (UniProt P00558); experiment: as above
Sequence of PGK1 (P00558 2-417 limits assumed): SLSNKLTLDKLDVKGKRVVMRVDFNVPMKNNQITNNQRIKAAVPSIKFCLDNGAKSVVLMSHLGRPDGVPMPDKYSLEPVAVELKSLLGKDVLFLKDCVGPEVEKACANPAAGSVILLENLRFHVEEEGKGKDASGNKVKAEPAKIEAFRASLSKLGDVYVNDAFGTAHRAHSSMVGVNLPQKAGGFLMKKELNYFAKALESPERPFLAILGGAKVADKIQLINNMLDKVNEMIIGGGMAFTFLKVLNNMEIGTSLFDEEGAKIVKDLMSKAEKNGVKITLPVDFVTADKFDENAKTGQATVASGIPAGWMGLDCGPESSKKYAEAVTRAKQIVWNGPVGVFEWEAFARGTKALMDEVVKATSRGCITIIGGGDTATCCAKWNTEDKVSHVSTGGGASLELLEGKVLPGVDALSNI

SMN1 [8] = target: SMN1 (UniProt Q16637); experiment: as above
Sequence of SMN1 (Q16637 other isoform, or with tags, fused parts or gaps limits assumed): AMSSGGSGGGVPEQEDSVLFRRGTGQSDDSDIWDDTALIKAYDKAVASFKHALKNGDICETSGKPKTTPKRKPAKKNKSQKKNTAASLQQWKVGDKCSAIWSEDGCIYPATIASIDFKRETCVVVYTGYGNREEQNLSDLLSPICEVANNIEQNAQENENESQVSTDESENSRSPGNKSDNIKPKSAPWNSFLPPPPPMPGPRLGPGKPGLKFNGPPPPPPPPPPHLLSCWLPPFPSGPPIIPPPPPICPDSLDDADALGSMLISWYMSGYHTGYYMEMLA

RAB1B [9] = target: RAB1B (UniProt Q9H0U4); experiment: as above
MAP1B = MAP1B (UniProt P46821); experiment: as above
ABCF1 = ABCF1 (UniProt Q8NE71); experiment: as above
RPL18A [10] = target: RPL18A (UniProt Q02543); experiment: as above
CSPG4 = CSPG4 (UniProt Q6UVK1); experiment: co-IP, anti-FLAG, lysate of N-FLAG B3GNT2 cells, mass spectrometry
OS9 [11] = target: OS9 (UniProt Q13438); experiment: as above
SLC25A10 [12] = target: SLC25A10 (UniProt Q9UBX3); experiment: as above
CALM2 [13] = target: CALM2 (UniProt P0DP24); experiment: as above
PRR4 = PRR4 (UniProt Q16378); experiment: as above
Sequence of PRR4 (Q16378 17-134 limits assumed): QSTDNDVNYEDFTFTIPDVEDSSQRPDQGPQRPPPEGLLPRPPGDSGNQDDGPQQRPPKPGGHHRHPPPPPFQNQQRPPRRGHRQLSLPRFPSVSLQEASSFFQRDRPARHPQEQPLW

RPL29 = RPL29 (UniProt P47914); experiment: as above
HSPH1 = HSPH1 (UniProt Q92598); experiment: as above
SRSF7 = SRSF7 (UniProt Q16629); experiment: as above
HSPA5 [14] = target: HSPA5 (UniProt P11021); experiment: as above
SLC25A3 = SLC25A3 (UniProt Q00325); experiment: as above
Sequence of SLC25A3 (Q00325 50-362 limits assumed): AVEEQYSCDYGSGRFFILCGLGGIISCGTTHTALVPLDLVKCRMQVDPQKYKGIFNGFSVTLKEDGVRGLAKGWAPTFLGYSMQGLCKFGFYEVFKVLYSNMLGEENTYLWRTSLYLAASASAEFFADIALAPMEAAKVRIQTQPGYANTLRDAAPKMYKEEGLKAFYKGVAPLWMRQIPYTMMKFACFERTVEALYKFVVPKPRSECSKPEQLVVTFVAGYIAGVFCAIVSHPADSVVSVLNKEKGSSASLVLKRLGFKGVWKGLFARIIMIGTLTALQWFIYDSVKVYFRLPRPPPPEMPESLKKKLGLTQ

SEC16A = SEC16A (UniProt O15027); experiment: as above
LOXL4 [15] = target: LOXL4 (UniProt Q96JB6); experiment: as above
LRPPRC [16] = target: LRPPRC (UniProt P42704); experiment: as above
CNP [17] = target: CNP (UniProt P09543); experiment: as above
SLC25A1 = SLC25A1 (UniProt P53007); experiment: as above
SMN1 [18] = target: SMN1 (UniProt Q16637); experiment: as above
PSMA4 = PSMA4 (UniProt P25789); experiment: as above
Sequence of PSMA4 (P25789 whole entry): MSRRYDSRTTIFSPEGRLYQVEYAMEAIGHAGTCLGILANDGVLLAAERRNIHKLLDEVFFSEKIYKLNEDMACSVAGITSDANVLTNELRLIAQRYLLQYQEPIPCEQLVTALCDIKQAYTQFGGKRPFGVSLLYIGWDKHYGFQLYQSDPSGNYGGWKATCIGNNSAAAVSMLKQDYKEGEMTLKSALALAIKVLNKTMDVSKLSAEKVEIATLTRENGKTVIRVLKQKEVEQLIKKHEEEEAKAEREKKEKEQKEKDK

RAB1B [19] = target: RAB1B (UniProt Q9H0U4); experiment: as above
PSMA1 = PSMA1 (UniProt P25786); experiment: as above
TRIM28 = TRIM28 (UniProt Q13263); experiment: as above
Sequence of TRIM28 (Q13263 2-835 limits assumed): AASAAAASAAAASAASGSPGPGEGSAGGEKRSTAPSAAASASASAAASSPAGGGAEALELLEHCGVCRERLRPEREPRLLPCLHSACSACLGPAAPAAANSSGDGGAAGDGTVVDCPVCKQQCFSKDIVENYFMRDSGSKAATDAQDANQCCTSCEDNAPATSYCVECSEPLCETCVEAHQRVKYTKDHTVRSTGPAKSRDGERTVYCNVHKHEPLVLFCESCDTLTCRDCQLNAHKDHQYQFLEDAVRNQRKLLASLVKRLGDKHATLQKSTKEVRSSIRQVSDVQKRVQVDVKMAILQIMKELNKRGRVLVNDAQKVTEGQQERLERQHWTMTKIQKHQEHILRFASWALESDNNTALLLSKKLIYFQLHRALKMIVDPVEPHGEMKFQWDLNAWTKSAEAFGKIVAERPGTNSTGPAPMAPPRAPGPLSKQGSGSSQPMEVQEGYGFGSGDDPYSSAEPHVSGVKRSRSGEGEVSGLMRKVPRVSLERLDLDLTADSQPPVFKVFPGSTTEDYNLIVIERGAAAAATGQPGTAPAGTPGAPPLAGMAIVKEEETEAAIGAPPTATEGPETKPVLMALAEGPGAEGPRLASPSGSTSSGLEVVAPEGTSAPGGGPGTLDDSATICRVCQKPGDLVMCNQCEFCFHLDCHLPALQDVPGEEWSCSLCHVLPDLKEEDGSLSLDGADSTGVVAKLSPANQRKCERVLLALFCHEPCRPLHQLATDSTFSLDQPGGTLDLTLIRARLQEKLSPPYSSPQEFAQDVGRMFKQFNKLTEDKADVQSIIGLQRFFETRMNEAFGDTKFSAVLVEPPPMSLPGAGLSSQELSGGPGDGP

DPM1 = DPM1 (UniProt O60762); experiment: as above
RPL18A [20] = target: RPL18A (UniProt Q02543); experiment: as above
SERPINE2 = SERPINE2 (UniProt P07093); experiment: as above
ALDOA = ALDOA (UniProt P04075); experiment: as above

Sequence of OS9 (Q13438 other isoform, or with tags, fused parts or gaps limits assumed): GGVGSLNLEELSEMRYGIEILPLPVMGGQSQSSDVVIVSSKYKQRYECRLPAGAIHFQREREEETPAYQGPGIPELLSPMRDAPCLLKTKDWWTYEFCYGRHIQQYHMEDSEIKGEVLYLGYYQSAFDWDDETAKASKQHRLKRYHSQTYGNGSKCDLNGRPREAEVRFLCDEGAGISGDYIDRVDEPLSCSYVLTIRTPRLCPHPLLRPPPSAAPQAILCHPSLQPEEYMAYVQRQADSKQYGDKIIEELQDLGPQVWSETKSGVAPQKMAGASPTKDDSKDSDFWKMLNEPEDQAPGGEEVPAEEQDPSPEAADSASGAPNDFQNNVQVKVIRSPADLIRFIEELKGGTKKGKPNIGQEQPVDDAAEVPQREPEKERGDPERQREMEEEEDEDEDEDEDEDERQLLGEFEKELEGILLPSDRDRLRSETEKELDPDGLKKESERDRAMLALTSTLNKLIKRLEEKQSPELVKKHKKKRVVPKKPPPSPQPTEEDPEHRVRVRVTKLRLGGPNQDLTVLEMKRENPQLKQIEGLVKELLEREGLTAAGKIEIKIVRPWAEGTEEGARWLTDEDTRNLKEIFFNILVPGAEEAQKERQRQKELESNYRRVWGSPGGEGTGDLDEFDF
Sequence of SLC25A10 (Q9UBX3 other isoform, or with tags, fused parts or gaps limits assumed): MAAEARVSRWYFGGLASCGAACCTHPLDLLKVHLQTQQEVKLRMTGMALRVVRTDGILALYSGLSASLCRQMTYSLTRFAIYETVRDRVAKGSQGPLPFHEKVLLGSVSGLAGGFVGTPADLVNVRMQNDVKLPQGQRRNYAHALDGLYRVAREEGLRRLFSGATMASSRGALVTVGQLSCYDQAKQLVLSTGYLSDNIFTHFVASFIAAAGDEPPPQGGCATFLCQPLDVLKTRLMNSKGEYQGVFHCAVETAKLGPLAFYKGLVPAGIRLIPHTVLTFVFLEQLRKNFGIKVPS

C-terminal FLAG tagged B3GNT2 (from UniProt Q9NY97 1-397) (enzyme)
co-IP/MS count (OS9 [1]): 9
co-IP/MS count (SLC25A10 [2]): 6
co-IP/MS count (CALM2 [3]): 2
co-IP/MS count (NCL): 11
co-IP/MS count (HSPA5 [4]): 130
co-IP/MS count (LOXL4 [5]): 8
co-IP/MS count (LRPPRC [6]): 9
co-IP/MS count (CNP [7]): 7
co-IP/MS count (PPIB): 2
co-IP/MS count (PGK1): 2
co-IP/MS count (SMN1 [8]): 14
co-IP/MS count (RAB1B [9]): 2
co-IP/MS count (MAP1B): 2
co-IP/MS count (ABCF1): 2
co-IP/MS count (RPL18A [10]): 12

N-terminal FLAG tagged B3GNT2 (from UniProt Q9NY97 1-397) (enzyme)
co-IP/MS count (CSPG4): 2
co-IP/MS count (OS9 [11]): 3
co-IP/MS count (SLC25A10 [12]): 5
co-IP/MS count (CALM2 [13]): 0
co-IP/MS count (PRR4): 2
co-IP/MS count (RPL29): 4
co-IP/MS count (HSPH1): 8
co-IP/MS count (SRSF7): 2
co-IP/MS count (HSPA5 [14]): 70
co-IP/MS count (SLC25A3): 4
co-IP/MS count (SEC16A): 2
co-IP/MS count (LOXL4 [15]): 5
co-IP/MS count (LRPPRC [16]): 2
co-IP/MS count (CNP [17]): 5
co-IP/MS count (SLC25A1): 5
co-IP/MS count (SMN1 [18]): 10
co-IP/MS count (PSMA4): 2
co-IP/MS count (RAB1B [19]): 0
co-IP/MS count (PSMA1): 2
co-IP/MS count (TRIM28): 4
co-IP/MS count (DPM1): 4
co-IP/MS count (RPL18A [20]): 3
co-IP/MS count (SERPINE2): 4
co-IP/MS count (ALDOA): 2
